How the values were obtained:
LFA-1 [1] = biological target: T1, LFA-1 (mouse (endogenous in OT-II T cells), UniProt P24063 24-1162; P11835 24-771); assay: single-molecule tracking by TIRF microscopy on supported lipid bilayers; as a1 but with 1 mM Mn^2+ and in the absence of pMHC, similar ICAM-1 density; details: one partner purified
T1 construct: integrin αL subunit of LFA-1, mouse; integrin β2 subunit of LFA-1, mouse; also called αL/β2 integrin; source: endogenous, on naive OT-II T cells and OT-II T cell blasts (mouse)
T1 sequence (P24063 24-1162, chain 1 of 2): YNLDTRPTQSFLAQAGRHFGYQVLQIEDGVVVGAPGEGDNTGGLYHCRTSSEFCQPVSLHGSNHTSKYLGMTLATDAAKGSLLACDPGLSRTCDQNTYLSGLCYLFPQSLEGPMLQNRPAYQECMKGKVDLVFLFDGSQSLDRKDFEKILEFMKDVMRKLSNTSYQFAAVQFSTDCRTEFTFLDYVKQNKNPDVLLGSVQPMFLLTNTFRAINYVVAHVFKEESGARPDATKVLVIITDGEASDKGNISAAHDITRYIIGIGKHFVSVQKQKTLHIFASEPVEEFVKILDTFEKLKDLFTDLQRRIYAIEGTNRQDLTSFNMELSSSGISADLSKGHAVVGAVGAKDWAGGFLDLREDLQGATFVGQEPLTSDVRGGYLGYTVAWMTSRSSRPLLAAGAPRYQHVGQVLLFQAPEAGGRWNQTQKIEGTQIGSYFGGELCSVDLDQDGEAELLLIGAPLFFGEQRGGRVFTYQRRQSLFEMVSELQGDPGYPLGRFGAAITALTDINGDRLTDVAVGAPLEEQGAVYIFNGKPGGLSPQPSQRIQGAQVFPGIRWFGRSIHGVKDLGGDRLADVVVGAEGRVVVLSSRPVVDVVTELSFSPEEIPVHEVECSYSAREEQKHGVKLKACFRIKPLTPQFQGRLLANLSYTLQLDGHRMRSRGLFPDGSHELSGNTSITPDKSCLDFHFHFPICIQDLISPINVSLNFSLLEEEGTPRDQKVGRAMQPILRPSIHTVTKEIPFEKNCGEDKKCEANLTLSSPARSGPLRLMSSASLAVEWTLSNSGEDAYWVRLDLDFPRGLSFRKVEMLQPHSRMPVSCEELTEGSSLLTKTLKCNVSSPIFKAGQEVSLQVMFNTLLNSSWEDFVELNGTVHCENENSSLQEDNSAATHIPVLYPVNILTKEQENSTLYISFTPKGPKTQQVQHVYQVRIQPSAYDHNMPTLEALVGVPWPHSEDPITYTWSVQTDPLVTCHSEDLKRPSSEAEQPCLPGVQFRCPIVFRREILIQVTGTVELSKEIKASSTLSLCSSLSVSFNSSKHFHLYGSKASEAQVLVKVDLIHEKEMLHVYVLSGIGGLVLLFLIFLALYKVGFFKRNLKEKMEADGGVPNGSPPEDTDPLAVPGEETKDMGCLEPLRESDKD
T1 sequence (P11835 24-771, chain 2 of 2): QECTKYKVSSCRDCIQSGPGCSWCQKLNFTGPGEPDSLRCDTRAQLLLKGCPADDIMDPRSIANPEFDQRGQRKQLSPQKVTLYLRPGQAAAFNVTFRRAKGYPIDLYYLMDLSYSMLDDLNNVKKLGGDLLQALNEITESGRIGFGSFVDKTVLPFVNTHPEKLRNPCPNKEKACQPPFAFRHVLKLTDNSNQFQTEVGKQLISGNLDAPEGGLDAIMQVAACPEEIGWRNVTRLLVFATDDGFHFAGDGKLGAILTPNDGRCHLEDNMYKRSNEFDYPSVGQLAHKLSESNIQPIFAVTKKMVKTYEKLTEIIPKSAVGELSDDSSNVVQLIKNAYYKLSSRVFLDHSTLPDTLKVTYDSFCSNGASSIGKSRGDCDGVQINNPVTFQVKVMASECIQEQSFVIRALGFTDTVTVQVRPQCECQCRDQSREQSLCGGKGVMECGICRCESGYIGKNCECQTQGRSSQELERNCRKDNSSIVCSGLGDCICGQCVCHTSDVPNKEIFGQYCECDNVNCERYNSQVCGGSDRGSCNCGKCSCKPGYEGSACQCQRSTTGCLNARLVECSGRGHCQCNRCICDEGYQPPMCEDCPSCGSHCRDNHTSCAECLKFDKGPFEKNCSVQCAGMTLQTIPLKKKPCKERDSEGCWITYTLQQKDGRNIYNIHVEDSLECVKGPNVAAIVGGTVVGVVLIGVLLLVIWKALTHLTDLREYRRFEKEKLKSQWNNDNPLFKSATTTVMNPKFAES

LFA-1 [2] = biological target: T1, LFA-1; assay: single-molecule tracking by TIRF microscopy on supported lipid bilayers; ATTO-647N-labeled ICAM-1-GPI (300 molecules/μm^2) and I-A^b-OVA peptide (200 molecules/μm^2) in supported planar lipid bilayers; naive OT-II T cells or OT-II T cell blasts (also Rap1b KO, Mst1/2 DKO, kindlin-3 or NDR1 knock-down cells) on top; 30 frames/s for 200 s; arrests of 0.5 to 200 s counted as binding; koff from a single exponential fit …; details: one partner purified

fold increase of binding durations longer than 10 s with Mn^2+ (LFA-1 [1]): 2 fold
koff (LFA-1 [2]): 0.032 s⁻¹
B1: Mouse ICAM-1-GPI (ligand)
chain: QVSIHPREAFLPQGGSVQVNCSSSCKEDLSLGLETQWLKDELESGPNWKLFELSEIGEDSSPLCFENCGTVQSSASATITVYSFPESVELRPLPAWQQVGKDLTLRCHVDGGAPRTQLSAVLLRGEEILSRQPVGGHPKDPKEITFTVLASRGDHGANFSCRTELDLRPQGLALFSNVSEARSLRTFDLPATIPKLDTPDLLEVGTQQKLFCSLEGLFPASEARIYLELGGQMPTQESTNSSDSVSATALVEVTEEFDRTLPLRCVLELADQILETQRTLTVYNFSAPVLTLSQLEVSEGSQVTVKCEAHSGSKVVLLSGVEPRPPTPQVQFTLNASSEDHKRSFFCSAALEVAGKFLFKNQTLELHVLYGPRLDETDCLGNWTWQEGSQQTLKCQAWGNPSPKMTCRRKADGALLPIGVVKSVKQEMNGTYVCHAFSSHGNVTRNVYLTVLYHSQNN
modifications: GPI anchor; labeled with ATTO-647N-NHS-ester
